Changes are numbered by the printed parent chain. Numbers in names are those of the source. Entries after “also recorded” stand apart in the source; their conditions may differ.
Experiments:
CHS = settings: cited from earlier work
[1] = TLC-based radiometric assay of product formation by 2-PS, CHS and CHS mutants (LC/MS confirmation); type: biochemical; settings: for product formed: 100 mM Hepes pH 7.0, 30 μM starter-CoA, 60 μM [14C]-malonyl-CoA, 25° C
Excerpt: Comparison of the initiation/elongation cavities of 2-PS (SEQ ID NO:68) and CHS (SEQ ID NO:1) reveal four amino acid differences. In 2-PS, Leu202, Met259, Leu261, and Ile343 replace Thr197, Ile254, Gly256, and Ser338, respectively, of CHS. These four substitutions reduce cavity volume from 923 Å^3 in CHS to 274 Å^3 in 2-PS. A model of methylpyrone in the 2-PS cavity, based on the position of acetoacetyl-CoA, emphasizes the volume change compared to the CHS-naringenin complex (Accession No. 1 CGK, SEQ ID NO:69). Leu202 and Ile343 occlude the portion of the 2-PS cavity corresponding to the coumaroyl-binding site of CHS. Replacement of Gly256 in CHS by Leu261 in 2-PS severely reduces the size of the active site cavity. Substitution of Met259 in 2-PS for Ile254 in CHS produces a modest alteration in cavity volume. To examine the functional importance of these amino acid differences, the initiation/elongation cavity of CHS was altered by mutagenesis to resemble that of 2-PS. The resulting mutant proteins were screened for activity using either p-coumaroyl-CoA or acetyl-CoA as starter molecules. Activities of 2-PS, CHS, and the CHS mutants were determined by monitoring product formation using a TLC-based radiometric assay. Assay conditions were 100 mM Hepes (pH 7.0), 30 μM starter-CoA (either p-coumaroyl-CoA or acetyl-CoA), and 60 μM [^14C]-malonyl-CoA (50,000 cpm) in 100 μl at 25° C. Reactions were quenched with 5% acetic acid, extracted with ethyl acetate, and applied to TLC plates and developed. Due to the spontaneous cyclization of chalcone into the flavanone naringenin, activities of CHS are referenced to nanngenin formation.
The x-ray crystal structures of 2-PS (SEQ ID NO:68) and CHS (SEQ ID NO:1) imply that the size of the active site cavity limits polyketide length and modulates folding of the polyketide chain. […] Since the T197L, G256L, and S338Imutants (see SEQ ID NO:1) altered product formation, a CHS triple mutant was generated. […] LC/MS/MS analysis was performed by the Mass Spectroscopy facility of the Scripps Research Institute. Scaled-up assays (2 ml reaction volume) with the CHS T197L/G256L/S338I mutant (see SEQ ID NO:1) and 2-PS (SEQ ID NO:68) were performed. Extracts were analyzed on a Hewlett-Packard HP1100 MSD single quadrupole mass spectrometer coupled to a Zorbax SB-C18 column (5 μm, 2.1 mm×150 mm). HPLC conditions were as follows: gradient system from 0 to 100% methanol in water (each containing 0.2% acetic acid) within 10 mm; flow rate 0.25 ml min^−1. LC/MS/MS data from both reactions were identical: 6-methyl-4-hydroxy-2-pyrone, Rt=5.068 mm; [M-H]^−125; [M-H—CO2]^−81. The numbers show m/z values with relative intensities in parenthesis. The observed fragmentation matches previously published data.

[2] = target: 2-Pyrone synthase (2-PS) from Gerbera hybrida (Gerbera hybrida); test: X-ray crystal structure, homodimer interface
[3] = 14C malonyl-CoA assay of CHS mutants, products analysed by TLC and autoradiography (naringenin vs resveratrol); type: biochemical; settings: TLC autoradiography
Excerpt: Wild type CHS produces chalcone, which spontaneously converts to naringenin, the position of which is indicated by the arrow on the left. Wild type STS produces resveratrol, the position of which is indicated by the arrow of the right. Function conversion of CHS to STS (i.e., the production of the alternate product from the same intermediate) results in diminished production of naringenin and increased production of resveratrol. Various mutants of CHS produce varying degrees of resveratrol, showing that CHS activity can be altered to STS-like activity to different extents by different mutations.
Mutant CHS (SEQ ID NO: 1) has altered activity based on assays conducted with ^14C malonyl-CoA. Products were extracted with ethyl acetate and analyzed by silica gel thin layer chromatography (TLC) and visualized by autoradiography.

[4] = Malonyl-CoA decarboxylation by C164S mutant (crystallographic and functional assay); type: biochemical
Excerpt: Asn336 appears to play a crucial role in the decarboxylation reaction. […] In the hexanoyl-CoA complex, the side chain amide of Asn336 provides a hydrogen bond to the carbonyl oxygen of the thioester. This interaction would stabilize the enolate anion resulting from decarboxylation of malonyl-CoA (see FIG. 6). At the same time, the lack of formal positive charge at Asn336 may preserve the partial carbanion character of this resonance-stabilized anion, and thus the nucleophilicity of the carbanion form.

[5] = Activity and kinetics of 18xCHS / 8xCHS compared with wild type CHS and STS; type: biochemical; settings: listed as 8×CHS
[6] = starter p-coumaroyl-CoA or acetyl-CoA

Q: With `C/C=C/C/C=C/CCC(=O)[C@H]1O[C@H]1C(N)=O` [Cerulenin] as the molecule, how does the “inhibition of CHS” value (CHS) read?
A: Its value is “potent irreversible inhibitor of CHS”.

Q: What about the “inactivation of CHS after preincubation with substrate” value (CHS; preincubation with coumaroyl-CoA or malonyl-CoA) of the same molecule?
A: The value was “Preincubation of CHS with coumaroyl-CoA prevents inactivation by cerulenin, but pre-incubation with malonyl-CoA does not”.

Q: Which results are given for “Wild-type CHS: wild type alfalfa chalcone synthase 2, SEQ ID NO:1 [reference compound]”?
A: product formed [1]: generates the tetraketide chalcone; preference for p-coumaroyl-CoA versus acetyl-CoA as starter molecule [1, 6]: 230 fold

Q: For “2-PS: 2-Pyrone synthase from Gerbera hybrida, SEQ ID NO:68 [Mutant 2-PS, reference compound]”, which product formed [1] is on record?
A: The product formed was “produces the triketide methylpyrone; also recorded: yields methylpyrone produced from three malonyl-CoA molecules”.

Q: What about the starter molecule accepted [1, 6] of the same molecule?
A: The starter molecule accepted was “accepts acetyl-CoA but does not use p-coumaroyl-CoA”.

Q: For “2-Pyrone synthase (2-PS) from Gerbera hybrida (enzyme)”, which surface area buried per monomer by the dimerization surface [2] is on record?
A: Its surface area buried per monomer by the dimerization surface is 1800 Å^2.

B1: 4B: alfalfa CHS mutant: A1 (four), A2 (five), A3 (M158G, Y160F), A4 (K269G) (protein, UniProt P30074 1-389, looked up, variant D96A V98L V99A V100M T131S S133T G134T V135P M137L M158G Y160F K269G)
Chalcone synthase 2: MVSVSEIRKAQRAEGPATILAIGTANPANCVEQSTYPDFYFKITNSEHKTELKEKFQRMCDKSMIKRRYMYLTEEILKENPNVCEYMAPSLDARQAMLAMEVPRLGKEAAVKAIKEWGQPKSKITHLIVCSTTTPDLPGADYQLTKLLGLRPYVKRYGMFQQGCFAGGTVLRLAKDLAENNKGARVLVVCSEVTAVTFRGPSDTHLDSLVGQALFGDGAAALIVGSDPVPEIEKPIFEMVWTAQTIAPDSEGAIDGHLREAGLTFHLLGDVPGIVSKNITKALVEAFEPLGISDYNSIFWIAHPGGPAILDQVEQKLALKPEKMNATREVLSEYGNMSSACVLFILDEMRKKSTQNGLKTTGEGLEWGVLFGFGPGLTIETVVLRSVAI
Q: What does the source list for B1?
A: naringenin amount [3]: reduced amounts of naringenin compared to wild type CHS; resveratrol amount [3]: various amounts of resveratrol

B2: C164S: alfalfa CHS C164S mutant (protein, listed as Medicago sativa)
chain: MVSVSEIRKAQRAEGPATILAIGTANPANCVEQSTYPDFYFKITNSEHKTELKEKFQRMCDKSMIKRRYMYLTEEILKENPNVCEYMAPSLDARQDMVVVEVPRLGKEAAVKAIKEWGQPKSKITHLIVCTTSGVDMPGADYQLTKLLGLRPYVKRYMMYQQGSFAGGTVLRLAKDLAENNKGARVLVVCSEVTAVTFRGPSDTHLDSLVGQALFGDGAAALIVGSDPVPEIEKPIFEMVWTAQTIAPDSEGAIDGHLREAGLTFHLLKDVPGIVSKNITKALVEAFEPLGISDYNSIFWIAHPGGPAILDQVEQKLALKPEKMNATREVLSEYGNMSSACVLFILDEMRKKSTQNGLKTTGEGLEWGVLFGFGPGLTIETVVLRSVAI
Q: With B2 as the molecule, how does the “catalytic / decarboxylation activity on malonyl-CoA” value [4] read?
A: The value was “retains decarboxylation activity; also recorded: retains limited catalytic activity; also recorded: produces acetyl-CoA”.

B3: A4: alfalfa CHS mutant: A4 (L268K, K269G, D270A, G273D) (protein, UniProt P30074 1-389, looked up, variant L268K K269G D270A G273D)
Chalcone synthase 2: B2 chain with S164C, L268K, K269G, D270A, G273D
Q: For B3, which “product profile (naringenin or chalcone versus resveratrol), cyclization specificity” value [3] is on record?
A: Its value is “no effect on cyclization specificity”.

B4: 2B: alfalfa CHS mutant: A1 (D96A, V98L, V99A, V100M), A2 (T131S, S133T, G134T, V135P, M137L) (protein, UniProt P30074 1-389, looked up, variant D96A V98L V99A V100M T131S S133T G134T V135P M137L)
Chalcone synthase 2: B1 Chalcone synthase 2 with G158M, F160Y, G269K
Q: Which naringenin amount [3] does the source give for B4 here?
A: Its naringenin amount is “reduced amounts of naringenin compared to wild type CHS”.

Q: And the resveratrol amount [3]?
A: Its resveratrol amount is “little or no resveratrol”.

B5: T197L: CHS T197L mutant (protein, listed as Medicago sativa)
chain: B2 chain with S164C, T197L
Q: What does the source list for B5?
A: product formed [1]: do not form chalcone; also recorded: form a distinct product using coumaroyl-CoA as a starter molecule; preference for p-coumaroyl-CoA versus acetyl-CoA as starter molecule [1, 6]: 10 fold

B6: T197L/G256L/S338I: CHS triple mutant with cavity resembling 2-PS (protein, listed as Medicago sativa)
chain: B2 chain with S164C, T197L, G256L, S338I
Q: Which product formed [1] does the source give for B6 here?
A: Its product formed is “produces only methylpyrone”.

Q: What about the starter molecule accepted [1, 6] of the same molecule?
A: The starter molecule accepted was “only accepts acetyl-CoA (or malonyl-CoA) as the starter molecule”.

B7: S338I: CHS S338I mutant (protein, listed as Medicago sativa)
chain: B2 chain with S164C, S338I
Q: Which product formed [1] does the source give for B7 here?
A: Its product formed is “do not form chalcone”.

Q: What about the product formed ([1]; listed as S3381) of the same molecule?
A: The product formed was “form a distinct product using coumaroyl-CoA as a starter molecule”.

Q: And the “preference for p-coumaroyl-CoA versus acetyl-CoA as starter molecule” value [1, 6]?
A: The value was 3 fold.

B8: G256L: CHS G256L mutant (protein, listed as Medicago sativa)
chain: B2 chain with S164C, G256L
Q: Which results are given for B8?
A: product formed [1]: do not form chalcone; preference for acetyl-CoA as starter molecule [1, 6]: 3 fold

B9: 14B: alfalfa CHS mutant: V98L, T131S, S133T, G134T, V135P, M137L (protein, UniProt P30074 1-389, looked up, variant V98L T131S S133T G134T V135P M137L)
Chalcone synthase 2: B1 Chalcone synthase 2 with A96D, A99V, M100V, G158M, F160Y, G269K
Q: Which naringenin amount [3] does the source give for B9 here?
A: The naringenin amount was “reduced amounts of naringenin compared to wild type CHS”.

Q: What about the resveratrol amount [3] of the same molecule?
A: The resveratrol amount was “little or no resveratrol”.

B10: I254M: CHS I254M mutant (protein, listed as Medicago sativa)
chain: B2 chain with S164C, I254M
Q: With B10 as the molecule, how does the “function and specific activity relative to wild-type enzyme” value [1] read?
A: Its value is “functionally comparable to wild-type enzyme with a modest reduction in specific activity”.

Q: And the product formed [1]?
A: The product formed was “yields chalcone”.

B11: 16B: alfalfa CHS mutant: V98L, T131S, S133T, G134T, V135P, M137L, M158G, Y160F (protein, UniProt P30074 1-389, looked up, variant V98L T131S S133T G134T V135P M137L M158G Y160F)
Chalcone synthase 2: B1 Chalcone synthase 2 with A96D, A99V, M100V, G269K
Q: With B11 as the molecule, how does the “activity and kinetics compared with STS” value [5] read?
A: The value was “activity that is similar to the 18×CHS mutant”.

Q: What about the naringenin amount [3] of the same molecule?
A: Its naringenin amount is “reduced amounts of naringenin compared to wild type CHS”.

Q: What about the resveratrol amount [3] of the same molecule?
A: The resveratrol amount was “various amounts of resveratrol”.

Source: patent US7285380B2, “Methods of producing polyketide synthase mutants and compositions and uses thereof” (The Salk Institute for Biological Studies, priority 2000, dated 2007)
